Laboratory results published in paper PMC3900686 (2014).

What was measured:
Test in all cases: ITC; LCMT-1 preloaded with SAH
[1] = target: PP2A core enzyme (A–C heterodimer), unmethylated ( |  ("mammalian …, UniProt P30153 1-589; P67775 1-309)
[2] = target: methylated PP2A core enzyme (methylated AC heterodimer) ( |  ("mammalian …, UniProt P30153 1-589)); P67775 1-309, carboxyl methylation of the last leucine residue (Leu-309))
[3] = target: PP2A catalytic Cα-subunit (free PP2Ac) ( ("mammalian PP2Ac"), UniProt P67775 1-309)
Sequence of PP2A catalytic Cα-subunit (free PP2Ac) (P67775 whole entry): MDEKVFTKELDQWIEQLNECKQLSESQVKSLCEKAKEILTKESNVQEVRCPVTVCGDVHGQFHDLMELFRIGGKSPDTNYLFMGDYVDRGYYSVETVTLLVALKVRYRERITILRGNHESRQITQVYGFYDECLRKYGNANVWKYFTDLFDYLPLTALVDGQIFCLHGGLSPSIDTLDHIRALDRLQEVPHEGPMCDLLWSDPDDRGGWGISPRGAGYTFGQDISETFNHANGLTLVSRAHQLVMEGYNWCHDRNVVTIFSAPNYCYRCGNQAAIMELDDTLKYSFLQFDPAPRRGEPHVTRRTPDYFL

Sequence of PP2A core enzyme (A–C heterodimer), unmethylated ( |  (P30153 whole entry, chain 1 of 2): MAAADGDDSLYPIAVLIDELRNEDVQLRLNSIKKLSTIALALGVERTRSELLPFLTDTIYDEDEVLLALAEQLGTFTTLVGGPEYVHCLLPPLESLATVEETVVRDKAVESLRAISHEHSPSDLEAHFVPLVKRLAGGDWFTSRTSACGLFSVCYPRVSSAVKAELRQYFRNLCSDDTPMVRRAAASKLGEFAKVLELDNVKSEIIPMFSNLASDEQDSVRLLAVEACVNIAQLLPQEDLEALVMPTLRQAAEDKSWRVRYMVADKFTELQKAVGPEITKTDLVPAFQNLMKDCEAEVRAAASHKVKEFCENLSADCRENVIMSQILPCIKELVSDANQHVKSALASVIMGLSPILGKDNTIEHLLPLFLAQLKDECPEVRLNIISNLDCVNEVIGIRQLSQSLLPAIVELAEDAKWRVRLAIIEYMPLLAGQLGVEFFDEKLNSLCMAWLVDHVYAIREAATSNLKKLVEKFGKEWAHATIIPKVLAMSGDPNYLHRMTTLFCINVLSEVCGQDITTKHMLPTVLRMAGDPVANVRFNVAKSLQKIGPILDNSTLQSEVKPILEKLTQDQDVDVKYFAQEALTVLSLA
Sequence of PP2A core enzyme (A–C heterodimer), unmethylated ( |  (P67775 whole entry, chain 2 of 2): as the sequence (P67775 whole entry) above
Sequence of methylated PP2A core enzyme (methylated AC heterodimer) ( |  (P30153 whole entry, chain 1 of 2): as the sequence (P30153 whole entry, chain 1 of 2) above
Sequence of methylated PP2A core enzyme (methylated AC heterodimer) ( |  (P67775 whole entry, chain 2 of 2): as the sequence (P67775 whole entry) above

B1: PP2A-specific leucine carboxyl methyltransferase 1 (LCMT-1) (enzyme)
chain: MATRQRESSITSCCSTSSCDADDEGVRGTCEDASLCKRFAVSIGYWHDPYIQHFVRLSKERKAPEINRGYFARVHGVSQLIKAFLRKTECHCQIVNLGAGMDTTFWRLKDEDLLPSKYFEVDFPMIVTRKLHSIKCKPPLSSPILELHSEDTLQMDGHILDSKRYAVIGADLRDLSELEEKLKKCNMNTQLPTLLIAECVLVYMTPEQSANLLKWAANSFERAMFINYEQVNMGDRFGQIMIENLRRRQCDLAGVETCKSLESQKERLLSNGWETASAVDMMELYNRLPRAEVSRIESLEFLDEMELLEQLMRHYCLCWATKGGNELGLKEITY
B1 was tested, and the Kd [1] was 140 nM, the Kd [2] was 630 nM and the Kd [3] was 560 nM.
